From patent US20170233472A1

What was measured:
[1] = target: human ROR1 expressed on the surface of cancer cells (human) (UniProt Q01973); experiment: FACS on PC-3 cells (ROR1-expressing), isotype control, concentration not given; PE-A, Anti-EK Biotin
[2] = target: human ROR1 expressed on the surface of cancer cells (human) (UniProt Q01973); experiment: FACS on HBL-2 cells (ROR1-expressing), isotype control, concentration not given; PE-A, Anti-EK Biotin

human ROR1 expressed on the surface of cancer cells (human), sequence (Q01973 30-937): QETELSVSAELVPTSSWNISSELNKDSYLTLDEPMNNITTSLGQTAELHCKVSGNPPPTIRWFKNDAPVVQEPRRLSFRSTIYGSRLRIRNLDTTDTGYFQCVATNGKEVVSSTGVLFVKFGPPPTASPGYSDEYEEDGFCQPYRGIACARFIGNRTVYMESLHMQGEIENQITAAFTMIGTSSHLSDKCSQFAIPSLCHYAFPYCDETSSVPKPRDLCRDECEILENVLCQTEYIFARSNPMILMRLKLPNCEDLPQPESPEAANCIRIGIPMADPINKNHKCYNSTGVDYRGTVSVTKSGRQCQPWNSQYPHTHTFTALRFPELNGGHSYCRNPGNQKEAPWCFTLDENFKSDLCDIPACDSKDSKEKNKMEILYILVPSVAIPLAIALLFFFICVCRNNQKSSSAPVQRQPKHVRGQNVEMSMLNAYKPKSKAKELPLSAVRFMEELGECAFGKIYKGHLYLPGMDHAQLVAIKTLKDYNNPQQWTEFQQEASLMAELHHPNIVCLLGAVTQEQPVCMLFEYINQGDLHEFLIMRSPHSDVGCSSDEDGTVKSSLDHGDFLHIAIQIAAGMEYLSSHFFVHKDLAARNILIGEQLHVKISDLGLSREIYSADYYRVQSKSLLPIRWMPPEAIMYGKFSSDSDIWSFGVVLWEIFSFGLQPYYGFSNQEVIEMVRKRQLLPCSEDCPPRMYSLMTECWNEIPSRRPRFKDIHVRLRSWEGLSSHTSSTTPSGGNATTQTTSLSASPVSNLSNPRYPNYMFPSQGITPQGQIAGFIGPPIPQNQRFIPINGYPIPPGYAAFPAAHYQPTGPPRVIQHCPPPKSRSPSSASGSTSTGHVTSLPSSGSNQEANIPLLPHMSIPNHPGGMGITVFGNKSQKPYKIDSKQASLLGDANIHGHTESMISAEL

- Mean: PE-A [1]: 85.2
- Mean: PE-A [2]: 13.8
Substance: Isotype Control
